From publication PMC6801465 come the findings set out here.

In the data set the target is EGFR on the cell surface (Huh-7, U87MG, MDA-MB-231) (human) (UniProt P00533). Description: flow cytometry. To be noted: 2'-OMe on U, G, C, all A (positions 8, 14, 19, 21, 24) are DNA, Binding buffer: serum-free DMEM + 100 ug/mL tRNA, aptamers denatured 95 C 5 min, snap cooled on ice 10 min, ELONA 1 h (temperature not given).

What is called Kd is a measure of binding affinity in units of concentration. As for “UGCUUUGAUGUCGAUUCGACAGGAGGC [CL-4RNV616]”, the Kd runs as follows: (Huh-7 cells) 71.2 nM; (MDA-MB-231 cells) 89.8 nM; (U87MG cells) 112 nM.
